Patent US7202329 (MYRIAD GENETICS, dated 2007)

How the values were obtained:
[1] = biological target: T1, VPS28 protein (aa 27-221) (human, UniProt Q9UK41 27-221); experiment: yeast two-hybrid, breast and prostate cancer library, bait Tsg101 240-391
T1 sequence (looked up): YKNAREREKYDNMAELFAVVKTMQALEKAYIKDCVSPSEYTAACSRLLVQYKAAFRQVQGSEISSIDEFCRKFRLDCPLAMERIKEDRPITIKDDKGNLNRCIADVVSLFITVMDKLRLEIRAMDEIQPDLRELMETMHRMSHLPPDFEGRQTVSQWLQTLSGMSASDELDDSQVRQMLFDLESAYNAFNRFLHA

[2] = biological target: T2, mitotic spindle coiled-coil related protein (aa 701-1082) (UniProt Q96R06 701-1082); experiment: yeast two-hybrid
T2 construct: range 701-1082
T2 sequence (looked up): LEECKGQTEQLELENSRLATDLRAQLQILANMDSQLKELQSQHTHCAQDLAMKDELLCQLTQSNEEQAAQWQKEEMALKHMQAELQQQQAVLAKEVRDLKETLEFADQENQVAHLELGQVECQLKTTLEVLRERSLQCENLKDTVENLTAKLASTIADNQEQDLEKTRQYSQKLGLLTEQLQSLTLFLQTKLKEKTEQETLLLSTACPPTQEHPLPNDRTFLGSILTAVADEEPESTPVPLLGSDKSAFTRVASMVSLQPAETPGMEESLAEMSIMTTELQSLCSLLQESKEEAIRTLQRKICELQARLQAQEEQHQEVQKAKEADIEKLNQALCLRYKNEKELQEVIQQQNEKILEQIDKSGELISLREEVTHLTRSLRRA

[3] = biological target: T3, intersectin 1 (aa 210-633) (UniProt Q15811 210-633); experiment: yeast two-hybrid
T3 construct: range 210-633
T3 sequence (looked up): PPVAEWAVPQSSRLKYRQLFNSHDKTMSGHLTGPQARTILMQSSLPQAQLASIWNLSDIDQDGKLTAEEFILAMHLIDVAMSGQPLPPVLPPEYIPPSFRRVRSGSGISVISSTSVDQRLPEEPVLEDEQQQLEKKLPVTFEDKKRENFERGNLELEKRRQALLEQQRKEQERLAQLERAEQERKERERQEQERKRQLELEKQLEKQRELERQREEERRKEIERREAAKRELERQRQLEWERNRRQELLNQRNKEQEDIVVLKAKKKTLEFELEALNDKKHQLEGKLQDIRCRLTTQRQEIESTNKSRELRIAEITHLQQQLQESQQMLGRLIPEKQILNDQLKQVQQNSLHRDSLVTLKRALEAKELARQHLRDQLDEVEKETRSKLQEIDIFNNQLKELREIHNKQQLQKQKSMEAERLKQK

[4] = biological target: T4, hook2 protein (aa 201-559) (UniProt Q96ED9 201-559); experiment: yeast two-hybrid
T4 construct: range 201-559
T4 sequence (looked up): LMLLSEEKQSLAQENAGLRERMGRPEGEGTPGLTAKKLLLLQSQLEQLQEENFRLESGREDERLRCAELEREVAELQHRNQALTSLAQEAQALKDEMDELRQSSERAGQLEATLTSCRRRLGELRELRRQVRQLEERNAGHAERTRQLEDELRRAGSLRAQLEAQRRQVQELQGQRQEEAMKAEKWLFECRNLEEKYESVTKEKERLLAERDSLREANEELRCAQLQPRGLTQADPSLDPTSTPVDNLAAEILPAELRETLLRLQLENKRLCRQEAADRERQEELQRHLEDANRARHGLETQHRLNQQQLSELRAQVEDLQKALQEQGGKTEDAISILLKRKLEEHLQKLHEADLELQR

[5] = biological target: T5, intersectin 1 (aa 387-611) (UniProt Q15811 387-611); experiment: yeast two-hybrid
T5 construct: range 387-611
T5 sequence (looked up): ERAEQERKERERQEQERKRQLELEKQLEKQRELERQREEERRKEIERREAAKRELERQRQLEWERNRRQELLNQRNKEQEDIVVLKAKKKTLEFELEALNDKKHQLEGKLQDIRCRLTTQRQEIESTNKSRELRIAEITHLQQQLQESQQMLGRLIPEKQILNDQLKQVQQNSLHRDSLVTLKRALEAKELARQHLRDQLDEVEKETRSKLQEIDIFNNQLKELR

[6] = biological target: T6, mitotic spindle coiled-coil related protein (aa 668-895) (UniProt Q96R06 668-895); experiment: yeast two-hybrid
T6 construct: range 668-895
T6 sequence (looked up): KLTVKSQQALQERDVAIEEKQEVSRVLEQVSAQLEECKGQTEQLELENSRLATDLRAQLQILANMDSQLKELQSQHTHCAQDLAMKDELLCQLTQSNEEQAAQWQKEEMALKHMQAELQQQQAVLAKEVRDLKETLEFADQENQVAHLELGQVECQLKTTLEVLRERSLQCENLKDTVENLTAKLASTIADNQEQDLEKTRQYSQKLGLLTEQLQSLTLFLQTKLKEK

[7] = biological target: T7, GTPase-activating protein 1 (aa 1308-1606) (UniProt P46940 1308-1606); experiment: yeast two-hybrid
T7 construct: range 1308-1606; also called IQGAP1; IQGAP
T7 sequence (looked up): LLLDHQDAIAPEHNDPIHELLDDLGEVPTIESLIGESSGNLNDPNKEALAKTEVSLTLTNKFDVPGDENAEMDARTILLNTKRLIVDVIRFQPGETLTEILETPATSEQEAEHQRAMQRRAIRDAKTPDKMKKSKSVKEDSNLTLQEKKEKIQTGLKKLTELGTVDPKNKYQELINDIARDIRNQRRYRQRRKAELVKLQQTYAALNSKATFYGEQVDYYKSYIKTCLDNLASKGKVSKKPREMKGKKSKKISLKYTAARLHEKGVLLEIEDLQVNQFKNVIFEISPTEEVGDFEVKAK

Measured: binding result

B1: Tsg101 (aa 240-391) (other, human, UniProt Q99816 240-390, looked up)
chain: WRMKEEMDRAQAELNALKRTEEDLKKGHQKLEEMVTRLDQEVAEVDKNIELLKKKDEELSSALEKMENQSENNDIDEVIIPTAPLYKQILNLYAEENAIEDTIFYLGEALRRGVIDLDVFLKHVRLLSRKQFQLRALMQKARKTAGLSDLY
notes: range 240-391; also called C-terminal fragment of Tsg101; amino acid residues 240-390
binds: all assays above
